Assay results from patent US12655441B2, “PPO polypeptides tolerant to PPO-inhibiting herbicides and use thereof” (QINGDAO KINGAGROOT CHEMICAL COMPOUND CO., LTD., priority 2021, dated 2026).
Positions count from the first letter of the chain named. Names and notes keep the numbering of the source.

B1: Y425I: Amino-acid sequence of PPO1 from rice mutant (protein)
chain: MAAAAAAMATATSATAAPPLRIRDAARRTRRRGHVRCAVASGAAEAPAAPGARVSADCVVVGGGISGLCTAQALATKHGVGDVLVTEARARPGGNITTAERAGEGYLWEEGPNSFQPSDPVLTMAVDSGLKDDLVFGDPNAPRFVLWEGKLRPVPSKPGDLPFFDLMSIPGKLRAGLGALGVRAPPPGREESVEDFVRRNLGAEVFERLIEPFCSGVYAGDPSKLSMKAAFGKVWRLEDTGGSIIGGTIKTIQERGKNPKPPRDPRLPTPKGQTVASFRKGLTMLPDAITSRLGSKVKLSWKLTSITKSDNKGYALVYETPEGVVSVQAKTVVMTIPSYVASDILRPLSSDAADALSIFYYPPVAAVTVSYPKEAIRKECLIDGELQGFGQLHPRSQGVETLGTIYSSSLFPNRAPAGRVLLLNIIGGSTNTGIVSKTESELVEAVDRDLRKMLINPKAVDPLVLGVRVWPQAIPQFLIGHLDHLEAAKSALGKGGYDGLFLGGNYVAGVALGRCVEGAYESASQISDYLTKYAYK
modifications: Amino-acid sequence of PPO1 from rice mutant (OsPPO1 Y425I)
B2: OsPPO1 WT: Amino-acid sequence of PPO1 from wild-type rice (protein)
chain: B1 chain with I425Y
modifications: Amino-acid sequence of PPO1 from wild-type rice (OsPPO1 WT)

Experiments:
OsPPO1 = assay: In vitro enzyme activity test of OsPPO1 proteins (fluorescence, substrate protoporphyrinogen); type: biochemical, rice; details: enzyme 500 nM, protoporphyrinogen 0.125-16 μM, excitation 410 nm, detection 630 nm
Description: Protoporphyrinogen, a substrate catalyzed by PPO, was prepared by reducing protoporphyrin with sodium amalgam. 10 mg of protoporphyrin was dissolved in 10 mL solvent, added with 20% sodium amalgam at the rate of 0.2 g/mL, reacted for 2 hours, then filtered under the protection of nitrogen in dark place. After the reaction was completed, the reaction solution should become achromatic or light brown. The reaction solution was diluted by adding with reaction buffer (100 mM Tris-HCl, 1 mM EDTA, 5 mM DTT, 0.1% Tween 20/80), and 10% hydrochloric acid was used to adjust pH to about 8.0. […]
3) The constructed fusion expression vector pET28a-MBP-OsPPO1 was transferred into E. coli BL21 (DE3), subjected to induced-expression with 0.5 mM IPTG, then purified with the Ni-NTA column, afterwards subjected to thrombin digestion, dialysed, and purified secondly by dextrin-column and Ni-column. […] The collected strains were re-suspended with the Ni-buffer A (50 mM Tris pH 8.0, 500 mM NaCl, 50 mM imidazole), homogenized by high pressure cell homogenizer, and centrifuged at 4000×g at 4° C. for 30 minutes; the supernatant was purified with the Ni column, then the purity thereof was detected by SDS-PAGE. The thrombin enzyme was added according to the quantity of proteins, dialyzed with 50 mM Tris pH 8.0, 500 mM NaCl, 1 mM DTT buffer. […]

[1] = test system: PPO-deficient Escherichia coli (ΔhemG); assay: PPO-deficient E. coli (ΔhemG) transformed by rice OsPPO1 mutant genes, growth on LB medium containing herbicide; details: 500 nM compound A
[2] = test system: Huaidao No. 5 rice seedlings; type: in vivo
Description: Rice seeds were peeled, washed with sterile water as many times as needed until the washing water became clear. Then the seeds were disinfected with 70% alcohol for 30 seconds and then with 5% sodium hypochlorite. The seeds were cultivated in a horizontal shaker for 20 minutes, disinfected with sodium hypochlorite and washed with sterile water for 5 times, placed on a sterile absorbent paper to air-dry the surface moisture of the seeds, and inoculated in an induction medium to cultivate the callus at 28° C. • 4) Infection of rice callus with Agrobacterium: the Huaidao No. 5 callus with a diameter of 3 mm was selected for sub-cultivation for 10 days and the callus was collected into a 50 ml centrifuge tube. […]

Arabidopsis thaliana = assay: Herbicide resistance test of Arabidopsis thaliana seeds overexpressing crop PPO1 WT or mutant on MS medium; type: in vivo; details: overexpressed in Arabidopsis thaliana seed
Description: 1) Sowing: plump and vernalized wild-type Arabidopsis thaliana seeds were selected, treated with 75% alcohol for 1 minute, disinfected with 10% NaClO for 6 minutes, and washed with sterile water for 5 to 6 times. After the sterilization was completed, the seeds were placed on a MS medium plate for one week, then transplanted to sterilized nutrient soil (nutrient soil:vermiculite=1:1) and cultured in a greenhouse at (25±2) ° C. with a photoperiod of 16 h/8 h (light/dark).
4) Infestation of Arabidopsis thaliana inflorescences: the uninfected Arabidopsis thaliana with good growth state and lush inflorescences were selected for infection and their fruit pods were cut off from the plants by scissors prior to transformation. The Arabidopsis thaliana inflorescences were dipped in the prepared infection solution for 0.5 to 1 minute. Then the infected Arabidopsis thaliana seedlings were placed in dark and humid conditions for 24 hours. After one week, the infection was repeated.
After the transformation of dipped Arabidopsis thaliana inflorescences, Arabidopsis thaliana TO-generation seeds were collected and sowed on a resistant MS plate containing 30 mg/L hygromycin to screen positive plants.
The obtained overexpressed mutant and wild-type Arabidopsis thaliana seeds of different crops were tested for resistance on a MS medium (petri dish) containing different concentrations of PPO-inhibiting herbicidal compounds, as shown in FIG. 12-23.

Molecule | enzyme activity relative to WT (OsPPO1) | growth of ΔhemG transformant on LB medium containing compound A, compared with the wild type [1] | tolerance/resistance to compound A compared with wild-type Huaidao No. 5 ([2]; T0 generation rice seedlings, compound A sprayed) | resistance compared with the wild-type control ([2]; compound A 135 g/ha and 270 g/ha) | tolerance to compound A compared with wild-type Arabidopsis thaliana (Arabidopsis thaliana; different concentrations of compound A) | tolerance to flumioxazin compared with wild-type Arabidopsis thaliana (Arabidopsis thaliana; different concentrations of flumioxazin) | tolerance to saflufenacil compared with wild-type Arabidopsis thaliana (Arabidopsis thaliana; different concentrations of saflufenacil)
B1 | lower than WT | grew normally |  |  |  |  | 
B2 |  |  | certain level of tolerance/resistance | showed no difference | certain level of tolerance | certain level of tolerance | certain level of tolerance
